Series [1] addresses T1, POT1 (POT1-N) (UniProt Q9NUX5).
T1 sequence: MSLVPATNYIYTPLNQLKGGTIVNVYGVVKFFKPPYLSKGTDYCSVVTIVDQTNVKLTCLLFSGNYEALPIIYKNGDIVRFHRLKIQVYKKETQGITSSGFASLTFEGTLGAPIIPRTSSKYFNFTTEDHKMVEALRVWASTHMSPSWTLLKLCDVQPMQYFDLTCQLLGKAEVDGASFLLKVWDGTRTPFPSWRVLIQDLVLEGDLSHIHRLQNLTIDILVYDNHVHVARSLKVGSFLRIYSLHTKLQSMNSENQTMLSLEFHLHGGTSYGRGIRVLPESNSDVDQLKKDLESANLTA
As to the kind of experiment: FTSA (SYPRO Orange). As to conditions: PNA backbone; printed as TTAGGGTTAG-O; 20 mM potassium phosphate, 180 mM KCl, pH 7.2; FTSA 20-99 °C, typically 5 uM POT1 and 50 uM DNA.

For series [2], the target named is T2, POT1 (POT1-N) (UniProt Q9NUX5 1-299).
T2 sequence: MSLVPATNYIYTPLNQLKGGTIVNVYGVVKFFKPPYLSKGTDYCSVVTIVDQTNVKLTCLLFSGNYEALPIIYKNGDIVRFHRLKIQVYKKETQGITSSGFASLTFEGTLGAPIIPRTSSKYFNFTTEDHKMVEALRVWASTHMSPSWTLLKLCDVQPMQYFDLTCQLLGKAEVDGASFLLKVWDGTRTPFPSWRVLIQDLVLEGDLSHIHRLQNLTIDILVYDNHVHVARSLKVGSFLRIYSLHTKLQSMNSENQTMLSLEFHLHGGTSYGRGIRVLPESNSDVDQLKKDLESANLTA
As to the kind of experiment: FTSA (SYPRO Orange); no appreciable Tm shift; 20 mM potassium phosphate, 180 mM KCl, pH 7.2; FTSA 20-99 °C, typically 5 uM POT1 and 50 uM DNA. As to conditions: protein: recombinant; tags: C-terminal 6xHis; single strand.

Series [3] has as its target T2, POT1 (POT1-N). As to the kind of experiment: FTSA titration (SYPRO Orange), Model 1; dCp_b -4300 J/mol/K; binding enthalpy fixed at -139 kJ/mol; dG25 -66.1 kJ/mol; 20 mM potassium phosphate, 180 mM KCl, pH 7.2; FTSA 20-99 °C, typically 5 uM POT1 and 50 uM DNA. As to conditions: protein: recombinant; tags: C-terminal 6xHis; single strand.
Series [4] has as its target T2, POT1 (POT1-N). As to the kind of experiment: FTSA titration (SYPRO Orange), Model 2; dCp_b fixed at 0; binding enthalpy and entropy fitted; dG25 -57.7 kJ/mol; 20 mM potassium phosphate, 180 mM KCl, pH 7.2; FTSA 20-99 °C, typically 5 uM POT1 and 50 uM DNA. Particulars: protein: recombinant; tags: C-terminal 6xHis; single strand.
For series [5], the target named is T2, POT1 (POT1-N). As to the kind of experiment: FTSA titration (SYPRO Orange), Model 3; dCp_b 0; binding entropy and unfolding enthalpy fitted; dG25 -57.9 kJ/mol; 20 mM potassium phosphate, 180 mM KCl, pH 7.2; FTSA 20-99 °C, typically 5 uM POT1 and 50 uM DNA. As to conditions: protein: recombinant; tags: C-terminal 6xHis; single strand.

With TTAGGGTTAG [PNA of O1], in series [1], the binding signal (°C (delta Tm)) was found to be 1.

Regarding CTAACCCTAA (ssDNA) [O1c (negative control)], the binding result in series [2] was “no binding”.

On to TTAGGGTTAG (ssDNA) [O1], for which the Ka came out at 4e+11 M⁻¹ in series [3], 1e+10 M⁻¹ in series [4] and 1e+10 M⁻¹ in series [5].

The values are drawn from publication PMC8009405, “POT1 stability and binding measured by fluorescence thermal shift assays”.
